Series [1] deals with T1, polymerase module (Cft1-Pap1-Pfs2-Fip1-Yth1);Mpe1 (Saccharomyces cerevisiae;Saccharomyces …, UniProt Q06632;P29468;P42841;P45976;Q06102;P35728 1-1357;1-568;1-465;1-327;1-208;1-441, |). Put plainly: size exclusion chromatography; 5 uM polymerase module, 15 uM Mpe1, 10 uM RNA; comigration, later elution; EMSA: SEC 50 buffer (composition not given in material), 50 nM FAM-RNA, 10% native PAGE 1X TBE, room temperature; SEC: Superose 6 Increase 3.2/300 in SEC 50. To be noted: protein: recombinant;recombinant; tags: untagged (from polymerase module-Mpe1 purification); Pfs2-SII in some preparations;C-terminal SII; copies: 1;1;1;1;1;1; label: 5' 6-FAM; single strand. (SEC sorts molecules by how far they enter the pores of the column.)

Series [2] deals with T1, polymerase module …. Nature of the series: cryo-EM; Zn2+; 2.66 A; EMSA: SEC 50 buffer (composition not given in material), 50 nM FAM-RNA, 10% native PAGE 1X TBE, room temperature; SEC: Superose 6 Increase 3.2/300 in SEC 50. As to conditions: protein: recombinant;recombinant; tags: untagged (from polymerase module-Mpe1 purification); Pfs2-SII in some preparations;C-terminal SII; copies: 1;1;1;1;1;1; single strand; 4 nt modelled.

Series [3] addresses polymerase module (Cft1-Pap1-Pfs2-Fip1-Yth1);Mpe1;yPIM peptide of Cft2 (Saccharomyces cerevisiae;Saccharomyces …, UniProt Q06632;P29468;P42841;P45976;Q06102;P35728;Q12102 …, ||). Nature of the series: cryo-EM; Zn2+; 2.61 A; Cft2 yPIM peptide; EMSA: SEC 50 buffer (composition not given in material), 50 nM FAM-RNA, 10% native PAGE 1X TBE, room temperature; SEC: Superose 6 Increase 3.2/300 in SEC 50. To be noted: tags: untagged (from polymerase module-Mpe1 purification); Pfs2-SII in some preparations;C-terminal SII;; copies: 1;1;2;1;1;1;1; single strand; 4 nt modelled. (In general: Mobility shift assays separate free from complexed probe on a gel.)

For the molecule UUUAUAGUUAUGUUAGUAUUAAGAACGUUAUUUAUAUUUCAA (ssRNA) [precleaved CYC1 (pcCYC1), 42 nt], in series [1], the binding result is reported as “binds”.
On to UUUAUAGUUAUGUUAGUAUUAAGAACGUUAUUUAUAUUUCAA (ssRNA) [precleaved CYC1 used for cryo-EM (IDT FAM or T7 version not stated)], for which the binding result in series [2] and in series [3] was “binds” in each case.
